Assay results reported in article PMC5223167.

B1: GATA consensus (dsDNA)
DNA 1: CACTTGATAACAGAAAGTGATAACTCT
DNA 2: AGAGTTATCACTTTCTGTTATCAAGTG
B2: IRF-1 consensus (dsDNA)
DNA 1: CACTGTCAATATTTCACTTTCATAATG
DNA 2: CATTATGAAAGTGAAATATTGACAGTG
B3: NF-kB consensus (dsDNA)
DNA 1: AGTTGAGGGGACTTTCCCAGGC
DNA 2: GCCTGGGAAAGTCCCCTCAACT
B4: inos proximal GATA-1 element (overlaps TATA box) (dsDNA)
DNA 1: GGGGTATAAATACCTGATGGCTGCTGCCAG
DNA 2: CTGGCAGCAGCCATCAGGTATTTATACCCC

These binders were tested against T1, PPE2 (Mycobacterium tuberculosis (BAC-Rv329 …, UniProt P9WI47)) (assay: EMSA; 20 mM HEPES (pH not stated), 0.5 mM DTT, 0.5 mM EDTA, 5% glycerol, room temperature, 30 min; […]). Details: protein: recombinant; tags: N-terminal His (pRSET A); label: 32P 5' end; blunt.
T1 sequence: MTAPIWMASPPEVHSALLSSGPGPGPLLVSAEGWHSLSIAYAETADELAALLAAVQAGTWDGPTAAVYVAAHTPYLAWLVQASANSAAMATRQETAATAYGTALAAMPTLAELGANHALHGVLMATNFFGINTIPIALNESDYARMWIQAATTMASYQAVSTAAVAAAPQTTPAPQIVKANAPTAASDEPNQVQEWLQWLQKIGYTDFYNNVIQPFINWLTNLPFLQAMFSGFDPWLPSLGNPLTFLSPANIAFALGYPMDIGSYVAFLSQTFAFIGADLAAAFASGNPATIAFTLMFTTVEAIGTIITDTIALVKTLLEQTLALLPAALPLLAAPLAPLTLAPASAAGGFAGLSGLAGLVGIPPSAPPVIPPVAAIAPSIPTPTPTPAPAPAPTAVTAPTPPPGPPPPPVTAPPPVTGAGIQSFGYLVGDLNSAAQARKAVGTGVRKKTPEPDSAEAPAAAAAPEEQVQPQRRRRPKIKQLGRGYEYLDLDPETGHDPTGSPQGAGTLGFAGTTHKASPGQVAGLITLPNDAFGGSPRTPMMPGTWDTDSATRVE
B1: binds. B2: no binding. B3: no binding. B4: binds.
